Measured values: US20230416347A1 (UNIVERSITY OF TENNESSEE RESEARCH FOUNDATION, published 2023)
Residue numbers refer to the chain shown, from its start. Names and notes keep the numbering of the source. Each block holds one binder with its values, some of them ahead of it.

Columns and labels:
rVλ6Wil fibrils [1] = molecular target: T1, rVλ6Wil fibrils; test: EuLISA on rVλ6Wil fibrils; plot with two y axes
T1 construct: domain: λ6 variable domain; Synthetic amyloid-like fibrils; also called rVλWIL; rVλ6Wil synthetic fibrils

HIG ALκ1 extract = molecular target: T2, HIG ALκ1 extract; test: pulldown assay
T2 construct: Human AL amyloid extract; also called ALκ HIG extract

[2] = molecular target: Per253 wild type (wt) ATTR extract (human, UniProt P02766 21-147); test: pulldown assay
rVλ6Wil fibrils [3] = molecular target: T1, rVλ6Wil fibrils; test: pulldown assay
SHI ALλ liver extract [4] = molecular target: T3, SHI ALλ liver extract; test: pulldown assay
T3 construct: Human AL amyloid extract; also called ALλ (SHI); ALλ SHI extract

KEN hATTR extract [5] = molecular target: T4, KEN hATTR extract (human, UniProt P02766 21-147); test: pulldown assay
SNO hATTR extract = SNO hATTR extract (human, UniProt P02766 21-147); test: pulldown assay
CAB ALκ4 = molecular target: T5, CAB ALκ4; test: pulldown assay
T5 construct: AL amyloid substrate of the pulldown assay

TAL ALκ liver extract [6] = molecular target: T6, TAL ALκ liver extract; test: pulldown assay
T6 construct: Human AL amyloid extract; also called ALκ (TAL); ALκ TAL

Per125 wtATTR extract [7] = molecular target: T7, Per125 wtATTR extract (human, UniProt P02766 21-147); test: pulldown assay
TYL ALλ extract = molecular target: T8, TYL ALλ extract; test: pulldown assay
T8 construct: Human AL amyloid extract; also called ALλ TYL extract

rVλ6Wil fibrils [8] = molecular target: T1, rVλ6Wil fibrils; test: EuLISA on rVλ6Wil fibrils (FIG. 5A)
[9] = molecular target: T9, Len(1-22) monomer peptide (Homo sapiens (Human), UniProt P06312 21-42); test: SPR, antibody as ligand, peptide as analyte
T9 construct: Analyte in SPR; on beads in the pulldown assay; also called Vκ4(LEN(1-22) beads)
T9 peptide: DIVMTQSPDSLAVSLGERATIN

rVλ6Wil fibrils [10] = molecular target: T1, rVλ6Wil fibrils; test: EuLISA
SHI ALλ liver extract [11] = molecular target: T3, SHI ALλ liver extract; test: EuLISA
TAL ALκ liver extract [12] = molecular target: T6, TAL ALκ liver extract; test: EuLISA
Per125 wtATTR extract [13] = molecular target: T7, Per125 wtATTR extract; test: EuLISA
rVλ6Wil fibrils [14] = molecular target: T1, rVλ6Wil fibrils; test: EuLISA on rVλ6Wil fibrils (FIG. 5B)
[15] = molecular target: T10, ALλ (BAL) amyloid extract; test: plate assay, time-resolved fluorescence (anti-human Fc, streptavidin-europium), 4PL fit
T10 construct: Human AL amyloid extract; also called human AL (BAL) amyloid extract
Experimental: (§1) The antibody-peptide conjugate was added to the wells in 2-fold serial dilution starting at 100 nM. For wells containing rVλ6WIL, the antibody-peptide conjugate was added to the wells in 2-fold serial dilution starting at 5 nM.

rVλ6Wil fibrils [16] = molecular target: T1, rVλ6Wil fibrils; test: as above
Experimental: as §1

SHI ALλ liver extract [17] = molecular target: T3, SHI ALλ liver extract; test: as above
Experimental: as §1

[18] = molecular target: T11, ALλ (GRA) amyloid extract; test: as above
T11 construct: also called ALκ(GRA) amyloid extract
Experimental: as §1

KEN hATTR extract [19] = molecular target: T4, KEN hATTR extract; test: as above
Experimental: as §1

TAL ALκ liver extract [20] = molecular target: T6, TAL ALκ liver extract; test: as above
Experimental: as §1

Per125 wtATTR extract [21] = molecular target: T7, Per125 wtATTR extract; test: as above
Experimental: as §1

[22] = molecular target: α-synuclein synthetic amyloid-like fibrils (UniProt P37840 1-140); test: as above
Experimental: (§2) The mean and standard deviation (SD) of three replicates were calculated and the potency (EC50) was determined following fitting with a sigmoidal four parameter logistic (4PL) equation with logarithmic x-axis (Prism) (FIG. 14). A non-reactive hIgG1 was used as a negative control in a parallel assay (FIG. 13B).

[23] = molecular target: Tau 441 synthetic amyloid-like fibrils (UniProt P10636-8 1-441); test: as above
Sequence of Tau 441 synthetic amyloid-like fibrils (P10636 other isoform, or with tags, fused parts or gaps limits assumed): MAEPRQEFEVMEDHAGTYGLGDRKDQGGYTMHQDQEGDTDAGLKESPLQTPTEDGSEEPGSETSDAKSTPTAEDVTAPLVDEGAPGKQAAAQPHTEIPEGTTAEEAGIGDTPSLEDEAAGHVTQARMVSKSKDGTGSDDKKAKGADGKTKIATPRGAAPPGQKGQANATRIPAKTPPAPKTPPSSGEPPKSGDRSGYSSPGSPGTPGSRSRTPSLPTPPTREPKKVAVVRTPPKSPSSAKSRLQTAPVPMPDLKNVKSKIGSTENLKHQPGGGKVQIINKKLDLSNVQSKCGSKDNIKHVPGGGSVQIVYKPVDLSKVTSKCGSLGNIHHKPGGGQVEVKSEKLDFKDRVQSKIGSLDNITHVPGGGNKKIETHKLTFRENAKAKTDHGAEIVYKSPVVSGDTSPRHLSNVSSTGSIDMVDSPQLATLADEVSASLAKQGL
Experimental: as §2

B1: VH9/VL4 (antibody, V domains shown)
VH: QVQLQESGPGLVKPSETLSLTCTVSGFSLSSYGVSWIRQPPGKGLEWLGVIWGDGSTNYHPNLMSRVTISVDTSKSQVLFKLSSVTAADTAVYYCATLDYWGQGTSVTVSS
VL: DVVMTQSPLSLPVTLGQPASISCRSSQSLVHRNGNTYLHWFQQRPGQSPRLLIYKVSNRFSGVPDRFSGSGSGTDFTLKISRVEAEDVGVYFCFQTTYVPNTFGGGTKLEIK
notes: Humanized 11-1F4; also called VH9/VL4 parent
- EC50 (read off the curve) (rVλ6Wil fibrils [1]): ~7 nM
- percent bound (HIG ALκ1 extract): 0.19%
- percent bound [2]: 0.8%
- percent bound (rVλ6Wil fibrils [3]): 10.4%
- percent bound (SHI ALλ liver extract [4]): 0.68%
- percent bound (KEN hATTR extract [5]): 0.61%
- percent bound (SNO hATTR extract): 0.41%
- percent bound (CAB ALκ4): 2.43%
- percent bound (TAL ALκ liver extract [6]): 0.72%
- percent bound (Per125 wtATTR extract [7]): 1.36%
- percent bound (TYL ALλ extract): 0.56%
- EC50 (rVλ6Wil fibrils [8]): 7 nM
- Kd [9]: 43 nM
- koff [9]: 0.0026 s⁻¹
- kon [9]: 60400 M⁻¹ s⁻¹

B7: VH9 + VL4-G34A (antibody, V domains shown)
VH: B1 VH
VL: B1 VL with G34A
notes: Humanized 11-1F4 variant
- Kd [9]: 30.4 nM
- koff [9]: 0.00181 s⁻¹
- kon [9]: 59500 M⁻¹ s⁻¹

B9: VH9-D54A + VL4 (antibody, V domains shown)
VH: B1 VH with D54A
VL: B1 VL
notes: Humanized 11-1F4 variant
- Kd [9]: 2180 nM
- koff [9]: 0.000778 s⁻¹
- kon [9]: 356 M⁻¹ s⁻¹

B11: VH9-G55A + VL4 (antibody, V domains shown)
VH: B1 VH with G55A
VL: B1 VL
notes: Humanized 11-1F4 variant
- Kd [9]: 17.2 nM
- koff [9]: 0.000484 s⁻¹
- kon [9]: 28200 M⁻¹ s⁻¹

B15: VH9 + VL4-N33A (antibody, V domains shown)
VH: B1 VH
VL: B1 VL with N33A
notes: Humanized 11-1F4 variant
- Kd [9]: 88.5 nM
- koff [9]: 0.001 s⁻¹
- kon [9]: 11300 M⁻¹ s⁻¹

B16: VH9-M64V + VL4 (antibody, V domains shown)
VH: B1 VH with M64V
VL: B1 VL
notes: Humanized 11-1F4 variant
- Kd [9]: 21.8 nM
- koff [9]: 0.00052 s⁻¹
- kon [9]: 23800 M⁻¹ s⁻¹

B17: VH9-M64L + VL4 (antibody, V domains shown)
VH: B1 VH with M64L
VL: B1 VL
notes: Humanized 11-1F4 variant
- Kd [9]: 22.4 nM
- koff [9]: 0.00208 s⁻¹
- kon [9]: 93000 M⁻¹ s⁻¹

B20: VH9 + VL4-N33E (antibody, V domains shown)
VH: B1 VH
VL: B1 VL with N33E
notes: Humanized 11-1F4 variant
- Kd [9]: 106 nM
- koff [9]: 0.00131 s⁻¹
- kon [9]: 12300 M⁻¹ s⁻¹

B21: PF.1 (VH9-D54E/VL4-N33S-p5R with VSPSV spacer, perfusion 1) (antibody, human IgG1, kappa)
heavy: not shown
light: DVVMTQSPLSLPVTLGQPASISCRSSQSLVHRSGNTYLHWFQQRPGQSPRLLIYKVSNRFSGVPDRFSGSGSGTDFTLKISRVEAEDVGVYFCFQTTYVPNTFGGGTKLEIKRTVAAPSVFIFPPSDEQLKSGTASVVCLLNNFYPREAKVQWKVDNALQSGNSQESVTEQDSKDSTYSLSSTLTLSKADYEKHKVYACEVTHQGLSSPVTKSFNRGECVSPSVRAQRAQARQARQAQRAQRAQARQARQ
notes: Antibody-peptide fusion, p5R on the light chain through VSPSV; perfusion culture 1 day, cation exchange, over 99% intact; also called VH9-D54E/VL4-N33S-VSPSV-p5R
- EC50 [15]: 0.36 nM
- EC50 (rVλ6Wil fibrils [16]): 0.15 nM
- EC50 (SHI ALλ liver extract [17]): 0.32 nM
- EC50 [18]: 0.6 nM
- EC50 (KEN hATTR extract [19]): 0.45 nM
- EC50 (TAL ALκ liver extract [20]): 0.4 nM
- EC50 (Per125 wtATTR extract [21]): 0.18 nM

B22: PF.7 (VH9-D54E/VL4-N33S-VSPSV-p5R collected after 7 days of perfusion culturing) (antibody, human IgG1, kappa)
heavy: not shown
light: B21 light
notes: Same construct as PF.1, perfusion culture for 7 days
- EC50 [22]: 127 nM
- EC50 [23]: 1300 nM

Further lines, results first:

- EC50 (rVλ6Wil fibrils [10]): 291 nM
- LogEC50 (rVλ6Wil fibrils [10]): 6.54 -log(M)
- Max (rVλ6Wil fibrils [10]): 63.9
- EC50 (SHI ALλ liver extract [11]): 256 nM
- LogEC50 (SHI ALλ liver extract [11]): 6.59 -log(M)
- Max (SHI ALλ liver extract [11]): 51.3
- LogEC50 (TAL ALκ liver extract [12]): ~0.599 -log(M)
- Max (TAL ALκ liver extract [12]): ~17800
- EC50 (Per125 wtATTR extract [13]): 381 nM
- LogEC50 (Per125 wtATTR extract [13]): 6.42 -log(M)
- Max (Per125 wtATTR extract [13]): 71.1
- EC50 (rVλ6Wil fibrils [14]): ~100 nM
- EC50 (rVλ6Wil fibrils [8]): ~72 nM
B2: chimeric antibody c11-1F4 (antibody, V domains shown)
VH: QVQLKESGPGLVAPSQSLSITCTVSGFSLSSYGVSWVRQPPGKGLEWLGVIWGDGSTNYHPNLMSRLSISKDISKSQVLFKLNSLQTDDTATYYCVTLDYWGQGTSVTVSS
VL: B1 VL with S7T, T14S, Q17D, P18Q, F41Y, Q42L, R44K, R50K, V88L, V90L
notes: Chimeric form of 11-1F4; also called ch11-1F4; chimeric (c) 11-1F4

- EC50 (rVλ6Wil fibrils [10]): 543 nM
- LogEC50 (rVλ6Wil fibrils [10]): 6.26 -log(M)
- Max (rVλ6Wil fibrils [10]): 184
- LogEC50 (SHI ALλ liver extract [11]): ~4.45 -log(M)
- Max (SHI ALλ liver extract [11]): ~1510
- LogEC50 (TAL ALκ liver extract [12]): ~3.03 -log(M)
- Max (TAL ALκ liver extract [12]): ~35100
- EC50 (Per125 wtATTR extract [13]): 1880 nM
- LogEC50 (Per125 wtATTR extract [13]): 5.72 -log(M)
- Max (Per125 wtATTR extract [13]): 209
B3: m11-1F4 (antibody, V domains shown)
VH: B2 VH
VL: B1 VL with S7T, T14S, Q17D, P18Q, F41Y, Q42L, R44K, R50K, V88L, V90L
notes: Murine monoclonal antibody; also called murine parent

- Kd [9]: 20.7 nM
- koff [9]: 0.00192 s⁻¹
- kon [9]: 92900 M⁻¹ s⁻¹
B4: VH9-M64I + VL4 (antibody, V domains shown)
VH: B1 VH with M64I
VL: B1 VL
notes: Humanized 11-1F4 variant

- Kd [9]: 483 nM
- koff [9]: 0.00163 s⁻¹
- kon [9]: 3380 M⁻¹ s⁻¹
B5: VH9-G55V + VL4 (antibody, V domains shown)
VH: B1 VH with G55V
VL: B1 VL
notes: Humanized 11-1F4 variant

- Kd [9]: 163 nM
- koff [9]: 0.00135 s⁻¹
- kon [9]: 8280 M⁻¹ s⁻¹
B6: VH9-D54E + VL4 (antibody, V domains shown)
VH: B1 VH with D54E
VL: B1 VL
notes: Humanized 11-1F4 variant

- Kd [9]: 66.9 nM
- koff [9]: 0.000954 s⁻¹
- kon [9]: 14300 M⁻¹ s⁻¹
B8: VH9 + VL4-N33S (antibody, V domains shown)
VH: B1 VH
VL: B1 VL with N33S
notes: Humanized 11-1F4 variant

- Kd [9]: 256 nM
- koff [9]: 0.000997 s⁻¹
- kon [9]: 3900 M⁻¹ s⁻¹
B10: VH9-D54Q + VL4 (antibody, V domains shown)
VH: B1 VH with D54Q
VL: B1 VL
notes: Humanized 11-1F4 variant

- Kd [9]: 13.3 nM
- koff [9]: 0.00104 s⁻¹
- kon [9]: 77900 M⁻¹ s⁻¹
B12: VH9-M64A + VL4 (antibody, V domains shown)
VH: B1 VH with M64A
VL: B1 VL
notes: Humanized 11-1F4 variant

- Kd [9]: 60.5 nM
- koff [9]: 0.000139 s⁻¹
- kon [9]: 2300 M⁻¹ s⁻¹
B13: VH9-D54S + VL4 (antibody, V domains shown)
VH: B1 VH with D54S
VL: B1 VL
notes: Humanized 11-1F4 variant

- Kd [9]: 56.6 nM
- koff [9]: 0.000743 s⁻¹
- kon [9]: 13100 M⁻¹ s⁻¹
B14: VH9 + VL4-N33H (antibody, V domains shown)
VH: B1 VH
VL: B1 VL with N33H
notes: Humanized 11-1F4 variant

- Kd [9]: 235 nM
- koff [9]: 0.00139 s⁻¹
- kon [9]: 5930 M⁻¹ s⁻¹
B18: VH9-D54H + VL4 (antibody, V domains shown)
VH: B1 VH with D54H
VL: B1 VL
notes: Humanized 11-1F4 variant

- Kd [9]: 78.4 nM
- koff [9]: 0.00104 s⁻¹
- kon [9]: 13300 M⁻¹ s⁻¹
B19: VH9 + VL4-N33Q (antibody, V domains shown)
VH: B1 VH
VL: B1 VL with N33Q
notes: Humanized 11-1F4 variant
